In EP1997885A1 (AXXAM S.p.A., dated 2008):
Blank lines part the entries; values can stand above or below the molecule they belong to.

What was measured:
[1] = target: recombinant (His6)-tagged EGFP; test: size exclusion chromatography on Superdex 200, 2 mg/mL, self-association
[2] = target: recombinant (His6)-tagged DsRed2; test: as above
[3] = target: AsGFP499(S103K), recombinant his-tagged (Anemonia sulcata); test: pseudo-native SDS-PAGE, self-association
[4] = target: AsGFP499(S103K), recombinant his-tagged (Anemonia sulcata); test: size exclusion chromatography on Superdex 200, 2 mg/mL, self-association
[5] = target: AsGFP499(S103K/R150E), recombinant his-tagged (Anemonia sulcata); test: size exclusion chromatography on Superdex 200, 2 mg/mL, self-association; second peak
[6] = target: AsGFP499(S103K/R150E), recombinant his-tagged (Anemonia sulcata); test: size exclusion chromatography on Superdex 200, 2 mg/mL, self-association; first peak
[7] = target: the molecule itself; test: pseudo-native SDS-PAGE, self-association
[8] = target: AsGFP499(S94T/S103K/R150K/S171N/K206R), recombinant his-tagged (Anemonia sulcata); test: size exclusion chromatography on Superdex 200, 2 mg/mL, self-association; second peak
[9] = target: AsGFP499(S94T/S103K/R150K/S171N/K206R), recombinant his-tagged (Anemonia sulcata); test: size exclusion chromatography on Superdex 200, 2 mg/mL, self-association; first peak

B3: AsGFP499(S103K/F173E) (other)
chain: MYPSIKETMRVQLSMEGSVNYHAFKCTGKGEGKPYEGTQSLNITITEGGPLPFAFDILSHAFQYGIKVFAKYPKEIPDFFKQSLPGGFSWERVSTYEDGGVLKATQETSLQGDCIICKVKVLGTNFPANGPVMQKKTCGWEPSTETVIPRDGGLLLRDTPALMLADGGHLSCEMETTYKSKKEVKLPELHFHHLRMEKLNISDDWKTVEQHESVVASYSQVPSKLGHN
notes: Only tested on the pseudo-native gel; reported as partly monomeric; also called AsGFP499 (S103/F173E); not shown: tag and vector-encoded residues of the bacterial expression vector
binding result [7]: binds

B4: AsGFP499(S94T/S103K/R150K/S171N/K206R), recombinant his-tagged (protein, not shown: small tags and cut ends)
chain: MYPSIKETMRVQLSMEGSVNYHAFKCTGKGEGKPYEGTQSLNITITEGGPLPFAFDILSHAFQYGIKVFAKYPKEIPDFFKQSLPGGFSWERVTTYEDGGVLKATQETSLQGDCIICKVKVLGTNFPANGPVMQKKTCGWEPSTETVIPKDGGLLLRDTPALMLADGGHLNCFMETTYKSKKEVKLPELHFHHLRMEKLNISDDWRTVEQHESVVASYSQVPSKLGHN
Apparent MW [kDa] [8]: 23 kDa
Apparent MW [kDa] [9]: 39 kDa

B5: AsGFP499(S94T/S103K/T159K/F173E), recombinant his-tagged (other)
chain: MYPSIKETMRVQLSMEGSVNYHAFKCTGKGEGKPYEGTQSLNITITEGGPLPFAFDILSHAFQYGIKVFAKYPKEIPDFFKQSLPGGFSWERVTTYEDGGVLKATQETSLQGDCIICKVKVLGTNFPANGPVMQKKTCGWEPSTETVIPRDGGLLLRDKPALMLADGGHLSCEMETTYKSKKEVKLPELHFHHLRMEKLNISDDWKTVEQHESVVASYSQVPSKLGHN
notes: Reported as a monomer; not shown: (His6) tag and vector-encoded residues of pET28a(+)
binding result [7]: no binding

B6: AsGFP499(S103K/T159K/F173E), recombinant his-tagged (other)
chain: MYPSIKETMRVQLSMEGSVNYHAFKCTGKGEGKPYEGTQSLNITITEGGPLPFAFDILSHAFQYGIKVFAKYPKEIPDFFKQSLPGGFSWERVSTYEDGGVLKATQETSLQGDCIICKVKVLGTNFPANGPVMQKKTCGWEPSTETVIPRDGGLLLRDKPALMLADGGHLSCEMETTYKSKKEVKLPELHFHHLRMEKLNISDDWKTVEQHESVVASYSQVPSKLGHN
notes: as for B5
binding result [7]: no binding

The next lines start with the values.

Apparent MW [kDa] [1]: 27 kDa
Molecule: recombinant (His6)-tagged EGFP

Apparent MW [kDa] [2]: 79 kDa
Molecule: recombinant (His6)-tagged DsRed2

MW on pseudo-native SDS-PAGE [3]: < 50 kDa
Apparent MW [kDa] [4]: 39 kDa
B1: AsGFP499(S103K), recombinant his-tagged (protein, not shown: small tags and cut ends)
chain: MYPSIKETMRVQLSMEGSVNYHAFKCTGKGEGKPYEGTQSLNITITEGGPLPFAFDILSHAFQYGIKVFAKYPKEIPDFFKQSLPGGFSWERVSTYEDGGVLKATQETSLQGDCIICKVKVLGTNFPANGPVMQKKTCGWEPSTETVIPRDGGLLLRDTPALMLADGGHLSCFMETTYKSKKEVKLPELHFHHLRMEKLNISDDWKTVEQHESVVASYSQVPSKLGHN

Apparent MW [kDa] [5]: 23 kDa
Apparent MW [kDa] [6]: 39 kDa
B2: AsGFP499(S103K/R150E), recombinant his-tagged (protein, not shown: small tags and cut ends)
chain: MYPSIKETMRVQLSMEGSVNYHAFKCTGKGEGKPYEGTQSLNITITEGGPLPFAFDILSHAFQYGIKVFAKYPKEIPDFFKQSLPGGFSWERVSTYEDGGVLKATQETSLQGDCIICKVKVLGTNFPANGPVMQKKTCGWEPSTETVIPEDGGLLLRDTPALMLADGGHLSCFMETTYKSKKEVKLPELHFHHLRMEKLNISDDWKTVEQHESVVASYSQVPSKLGHN
